Assay results published in US20230357367A1 (GENERATE BIOMEDICINES, published 2023).
Positions count from the first letter of the chain named. Where two headings read alike, the source gives them in different places.

B1: AB-1 (antibody, V domains shown)
VH: EVQLVESGAEVKKPGESLKISCKGSGYTFTRYWIGWVRQMPGKGLEWMGIIYPGDSDVRYSPSFQGHVTISADKSISTAYLQWNSLKASDTAMYYCARLPQYCSKGVCYRWFDPWGQGTLVTVSS
VL: EIVLTQSPSSVSASVGDRVTITCRASQGISSWLAWYQQKPGKAPKLLIYAASSLQSGVPSRFSGSGSGTDFTLTISSLQPEDFATYYCQQGHSFPYTFGQGTNLEIK
B2: Reference Antibody (antibody, V domains shown)
VH: B1 VH with V58T, K105N, Y109Q
VL: B1 VL with H92N

Key:
Experiment in all cases: cell-based or functional assay
[1] = molecular target: T1, SARS-CoV-2 Omicron BA.2 Spike on pseudovirus (SARS-CoV-2)
[2] = molecular target: T2, SARS-CoV-2 Omicron BA.4/5 Spike on pseudovirus (SARS-CoV-2)
[3] = molecular target: T3, SARS-CoV-2 Delta Spike on virus particles (SARS-CoV-2)
[4] = molecular target: T4, SARS-CoV-2 Omicron BA.1 Spike on virus particles (SARS-CoV-2)
[5] = molecular target: T5, SARS-CoV-2 Omicron BA.2.12.1 Spike on pseudovirus (SARS-CoV-2)
[6] = molecular target: T3, SARS-CoV-2 Delta Spike on virus …; remark: listed apart in the source
[7] = molecular target: T4, SARS-CoV-2 Omicron BA.1 Spike on virus …; remark: listed apart in the source
[8] = molecular target: SARS-CoV-2 Omicron BA.4/5+K444T Spike on pseudovirus (SARS-CoV-2)
[9] = molecular target: T2, SARS-CoV-2 Omicron BA.4/5 Spike on …; remark: listed apart in the source
[10] = molecular target: T1, SARS-CoV-2 Omicron BA.2 Spike on …; remark: listed apart in the source
[11] = molecular target: T2, SARS-CoV-2 Omicron BA.4/5 Spike on …; remark: listed apart in the source
[12] = molecular target: T3, SARS-CoV-2 Delta Spike on virus …; remark: listed apart in the source
[13] = molecular target: T4, SARS-CoV-2 Omicron BA.1 Spike on virus …; remark: listed apart in the source
[14] = molecular target: T5, SARS-CoV-2 Omicron BA.2.12.1 Spike on …; remark: listed apart in the source
[15] = molecular target: SARS-CoV-2 D614G Spike on pseudovirus (SARS-CoV-2, UniProt P0DTC2 14-1273)
[16] = molecular target: T1, SARS-CoV-2 Omicron BA.2 Spike on …; remark: listed apart in the source
[17] = molecular target: T2, SARS-CoV-2 Omicron BA.4/5 Spike on …; remark: listed apart in the source
[18] = molecular target: T3, SARS-CoV-2 Delta Spike on virus …; remark: listed apart in the source
[19] = molecular target: T5, SARS-CoV-2 Omicron BA.2.12.1 Spike on …; remark: listed apart in the source

| Binder | % neutralization at 4.5 µg/ml, pseudovirus [1] | % neutralization at 4.5 µg/ml, pseudovirus [2] | % neutralization at 4.5 µg/ml, pseudovirus [3] | % neutralization at 4.5 µg/ml, pseudovirus [4] | % neutralization at 4.5 µg/ml, pseudovirus [5] | IC50, live virus neutralization [6] | IC50, live virus neutralization [7] | Neutralization - IC50, pseudovirus [8] | Neutralization - IC50, pseudovirus [9] | IC50, pseudovirus neutralization [10] | IC50, pseudovirus neutralization [11] | IC50, pseudovirus neutralization [12] | IC50, pseudovirus neutralization [13] | IC50, pseudovirus neutralization [14] | EC50, pseudovirus neutralization on TMPRSS2-Vero E6 cells [15] | IC50, pseudovirus neutralization [16] | IC50, pseudovirus neutralization [17] | IC50, pseudovirus neutralization [18] | IC50, pseudovirus neutralization [19] |
| --- | --- | --- | --- | --- | --- | --- | --- | --- | --- | --- | --- | --- | --- | --- | --- | --- | --- | --- | --- |
| B1 | 89.9% | 90.4% | 99.5% | 96.5% | 89.2% | 0.236 µg/mL | 0.119 µg/mL | 0.0094 µg/mL | 0.0101 µg/mL | 0.0219 µg/mL | 0.0278 µg/mL | 0.0139 µg/mL | 0.0088 µg/mL | 0.0133 µg/mL | 0.013 µg/mL | 0.031 µg/mL | 0.075 µg/mL | 0.034 µg/mL |  |
| B2 | 74.5% | 74.4% | 93.9% | 91.9% |  | 7.45 µg/mL | 0.528 µg/mL |  |  | 0.0941 µg/mL | 0.0314 µg/mL | 0.0681 µg/mL | 0.0261 µg/mL | 0.0307 µg/mL |  | 1.25 µg/mL | 0.634 µg/mL | 0.256 µg/mL | 0.337 µg/mL |
